# Data as given in article PMC4864540, “Isolation and Characterization of a Broad Spectrum Bacteriocin from Bacillus amyloliquefaciens RX7” (BioMed Research International, 2016).
# Columns and labels:
# [1] = system: Bacillus cereus KCTC 1661; assay: Agar well diffusion assay; assay type: cell-based; conditions: cell-free supernatant, medium LB
# Procedure: (§1) Soil samples were collected from a farm in Cheonan city, Korea. They were mixed with sterile water (1 : 10, w/v), homogenized, and heated at 50°C for 60 min in a water bath. One mL of this suspension was inoculated into 100 mL of tryptic soy broth (Difco, USA) and incubated at 50°C for 24 h, after which microbial growth was monitored based on changes in turbidity of the cultures. Aliquots of the cultures were inoculated onto TSB plates, incubated at 30°C, and single colonies were isolated and screened for antimicrobial activity. The antimicrobial activity was performed according to Ramachandran et al. with modifications. It was expressed as the diameter of the inhibition zones around the wells using agar well diffusion assays with Listeria monocytogenes ATCC 19114 as the indicator strain.
# (§2) Antimicrobial activity was detected using the agar well diffusion assay and tested against all indicator strains (Table 1) grown in their respective media, as indicated (Difco, USA). An aliquot of culture was centrifugated at 6,000 g for 15 min at 4°C (Mega 21R, Hanil Co., Republic of Korea), filtered using 0.45 μm pore-size cellulose acetate syringe filters (Advantec Co., Japan) to remove cells, then applied to wells on agar plates. Experiments were done in no less than five individual trials having no less than three replications.
# (§3) The plates were incubated at the optimal temperature of the test organism. The bacteriocin titer was determined using the serial twofold dilution method. Activity was defined as the reciprocal of the dilution after the last serial dilution giving a zone of inhibition and was expressed as activity units (AU) per milliliter. All measurements were done in triplicate and the means are shown as the results.
# [2] = system: Bacillus licheniformis KCCM 12145; assay: Agar well diffusion assay; assay type: cell-based; conditions: cell-free supernatant, medium NB
# Procedure: as §1, §2, §3
# [3] = system: Escherichia coli K88; assay: Agar well diffusion assay; assay type: cell-based; conditions: cell-free supernatant, medium LB
# Procedure: as §1, §2, §3
# [4] = system: Lactobacillus acidophilus KCCM 32820; assay: Agar well diffusion assay; assay type: cell-based; conditions: cell-free supernatant, medium MRS
# Procedure: as §1, §2, §3
# [5] = system: Lactobacillus delbrueckii KCCM 11357; assay: Agar well diffusion assay; assay type: cell-based; conditions: cell-free supernatant, medium MRS
# Procedure: as §1, §2, §3
# [6] = system: Lactobacillus johnsonii PF01 (our isolate); assay: Agar well diffusion assay; assay type: cell-based; conditions: cell-free supernatant, medium MRS
# Procedure: as §1, §2, §3
# [7] = system: Lactobacillus plantarum KCCM 11322; assay: Agar well diffusion assay; assay type: cell-based; conditions: cell-free supernatant, medium MRS
# Procedure: as §1, §2, §3
# [8] = system: Listeria monocytogenes ATCC 19114; assay: Agar well diffusion assay; assay type: cell-based; conditions: cell-free supernatant, medium TSB
# Procedure: as §1, §2, §3
# [9] = system: Salmonella enteritidis KCCM 12021; assay: Agar well diffusion assay; assay type: cell-based; conditions: cell-free supernatant, medium NB
# Procedure: as §1, §2, §3
# [10] = system: Salmonella gallinarum KVCC-BA0700722; assay: Agar well diffusion assay; assay type: cell-based; conditions: cell-free supernatant, medium NB
# Procedure: as §1, §2, §3
# [11] = system: Salmonella typhimurium KCCM 40253; assay: Agar well diffusion assay; assay type: cell-based; conditions: cell-free supernatant, medium NB
# Procedure: as §1, §2, §3
# [12] = system: Staphylococcus aureus KFRI 00188; assay: Agar well diffusion assay; assay type: cell-based; conditions: cell-free supernatant, medium NB
# Procedure: as §1, §2, §3
# [13] = system: Streptococcus agalactiae ATCC 13813; assay: Agar well diffusion assay; assay type: cell-based; conditions: cell-free supernatant, medium TSB
# Procedure: as §1, §2, §3
# [14] = system: Streptococcus mutans ATCC 25175; assay: Agar well diffusion assay; assay type: cell-based; conditions: cell-free supernatant, medium BHI
# Procedure: as §1, §2, §3
# [15] = system: lipase; assay: Effect of enzyme treatment on antimicrobial activity; assay type: in vitro ADME; conditions: Lipase 10 mg/mL, 37°C, 2 h, then boiled 2 min; residual antimicrobial activity vs before treatment, against L. monocytogenes ATCC 19114
# Procedure: (§4) To evaluate pH stability, the pH of crude bacteriocin solution was adjusted with 1 N HCl and 1 N NaOH and readjusted to pH 7 after incubation for 2 h at 37°C. To evaluate thermal stability, the crude bacteriocin solution was incubated at 4, 37, 50, 80, and 100°C for 15–30 minutes. All samples were cooled to room temperature before activity assays. To analyze sensitivity to various enzymes, the crude bacteriocin solution was treated at 37°C for 2 h with 10 mg/mL (final concentration) of the following enzymes: α-amylase, α-chymotrypsin, lipase, proteinase-K, pepsin, or trypsin. All enzymes used were from Sigma (USA) and Takara (Japan). The samples were then boiled for 2 min to denature the enzymes and cooled to room temperature. Samples were exposed to various organic solvents at a final concentration of 10% (v/v) to explore their effects on bacteriocin activity. After incubation for 2 h at 37°C, the residual activity was recorded. All treated samples were tested for residual activity against L. monocytogenes ATCC 19114, as described above.
# [16] = target: T1, pepsin (Sus scrofa, UniProt P00791); assay: as above; assay type: in vitro ADME; conditions: Pepsin 10 mg/mL, 37°C, 2 h, then boiled 2 min; residual antimicrobial activity vs before treatment, against L. monocytogenes ATCC 19114
# T1 construct: purchased Sigma (USA) and Takara (Japan)
# Procedure: as §4
# [17] = target: T2, proteinase-K (Parengyodontium album, UniProt P06873); assay: as above; assay type: in vitro ADME; conditions: Proteinase-K 10 mg/mL, 37°C, 2 h, then boiled 2 min; residual antimicrobial activity vs before treatment, against L. monocytogenes ATCC 19114
# T2 construct: purchased Sigma (USA) and Takara (Japan)
# Procedure: as §4
# [18] = system: trypsin; assay: as above; assay type: in vitro ADME; conditions: Trypsin 10 mg/mL, 37°C, 2 h, then boiled 2 min; residual antimicrobial activity vs before treatment, against L. monocytogenes ATCC 19114
# Procedure: as §4
# [19] = system: α-amylase; assay: as above; assay type: in vitro ADME; conditions: α-Amylase 10 mg/mL, 37°C, 2 h, then boiled 2 min; residual antimicrobial activity vs before treatment, against L. monocytogenes ATCC 19114
# Procedure: as §4
# [20] = target: T3, α-chymotrypsin (Bos taurus, UniProt P00766); assay: as above; assay type: in vitro ADME; conditions: α-Chymotrypsin 10 mg/mL, 37°C, 2 h, then boiled 2 min; residual antimicrobial activity vs before treatment, against L. monocytogenes ATCC 19114
# T3 construct: purchased Sigma (USA) and Takara (Japan)
# Procedure: as §4
# [21] = system: L. monocytogenes ATCC 19114; assay: Thermal stability of antimicrobial activity; assay type: physicochemical, Listeria monocytogenes; conditions: cooled to room temperature, residual activity vs before treatment, against L. monocytogenes ATCC 19114
# Procedure: as §4
# [22] = system: L. monocytogenes ATCC 19114; assay: Effect of organic solvents on antimicrobial activity; assay type: physicochemical, Listeria monocytogenes; conditions: 2 h at 37°C, residual activity against L. monocytogenes ATCC 19114
# Procedure: as §4
# T2 sequence (P06873 106-384): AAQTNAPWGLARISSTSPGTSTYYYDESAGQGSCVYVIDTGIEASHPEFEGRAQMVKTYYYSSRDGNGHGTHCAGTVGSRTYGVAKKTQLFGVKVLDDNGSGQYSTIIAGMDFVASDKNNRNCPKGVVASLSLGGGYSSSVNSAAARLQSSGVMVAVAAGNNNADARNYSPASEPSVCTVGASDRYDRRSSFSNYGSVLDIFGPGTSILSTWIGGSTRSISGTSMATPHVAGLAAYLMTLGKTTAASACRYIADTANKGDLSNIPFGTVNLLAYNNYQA
# T1 sequence (P00791 60-385): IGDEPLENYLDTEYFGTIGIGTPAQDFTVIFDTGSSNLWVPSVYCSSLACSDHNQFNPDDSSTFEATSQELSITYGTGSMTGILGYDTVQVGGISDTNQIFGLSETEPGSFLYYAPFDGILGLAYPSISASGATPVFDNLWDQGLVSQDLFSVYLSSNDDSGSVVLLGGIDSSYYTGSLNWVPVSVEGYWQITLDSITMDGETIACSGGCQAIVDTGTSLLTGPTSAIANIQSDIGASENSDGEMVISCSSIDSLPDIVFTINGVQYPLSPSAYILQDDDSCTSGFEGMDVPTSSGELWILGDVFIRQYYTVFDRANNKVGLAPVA
substance,measurement,setting,value
"NH2-X-Ala-Trp-Tyr-Asp-Ile-Arg-Lys-Leu-Gly-Asn-Lys-Gly-Ala [RX7 bacteriocin, Bacteriocin of approximately 5 kDa produced by Bacillus amyloliquefaciens RX7; homologous to lantibiotic haloduracin A1]",Inhibition zone (mm),[1],++ (less than 20 mm)
same,Inhibition zone (mm),[2],++ (less than 20 mm)
same,Inhibition zone (mm),[3],++ (less than 20 mm)
same,Inhibition zone (mm),[4],+ (less than 10 mm)
same,Inhibition zone (mm),[5],+ (less than 10 mm)
same,Inhibition zone (mm),[6],+ (less than 10 mm)
same,Inhibition zone (mm),[7],+ (less than 10 mm)
same,Inhibition zone (mm),[8],+++ (less than 30 mm)
same,Inhibition zone (mm),[9],++ (less than 20 mm)
same,Inhibition zone (mm),[10],++ (less than 20 mm)
same,Inhibition zone (mm),[11],++ (less than 20 mm)
same,Inhibition zone (mm),[12],++ (less than 20 mm)
same,Inhibition zone (mm),[13],++ (less than 20 mm)
same,Inhibition zone (mm),[14],+ (less than 10 mm)
same,Residual activity (%),[15],100%
same,Residual activity (%),[16],100%
same,Residual activity (%),[17],0%
same,Residual activity (%),[18],0%
same,Residual activity (%),[19],100%
same,Residual activity (%),[20],0%
same,Residual activity (%),[21]; heat 4°C/30 min,100%
same,Residual activity (%),[21]; heat 37°C/30 min,100%
same,Residual activity (%),[21]; heat 50°C/30 min,100%
same,Residual activity (%),[21]; heat 80°C/30 min,100%
same,Residual activity (%),[21]; heat 100°C/30 min,80%
same,Residual activity (%),[21]; heat 121°C/15 min,20%
same,Residual activity (%),[22]; Acetone 10% (v/v),90%
same,Residual activity (%),[22]; Acetonitrile 10% (v/v),90%
same,Residual activity (%),[22]; Butanol 10% (v/v),80%
same,Residual activity (%),[22]; Chloroform 10% (v/v),80%
same,Residual activity (%),[22]; Ethanol 10% (v/v),90%
same,Residual activity (%),[22]; Methanol 10% (v/v),80%
